In article PMC8264304:

Test system: MexR (CSP18) (Pseudomonas aeruginosa clinical isolate CSP18)
Assay: MST
Conditions: MST: 10 mM Tris, 1 mM DTT, room temperature

Substance: mexR-mexA intergenic region
- Kd: 1100 nM
